Patent US20100234294A1 (INSTITUT NATIONAL DE LA SANTE ET DE LA RECHERCHE MEDICALE …, published 2010)

Legend:
Assay in all cases: co-expression in COS cells
[1] = target: T1, DAP10 (UniProt Q9UBK5 19-93)
T1 sequence (looked up): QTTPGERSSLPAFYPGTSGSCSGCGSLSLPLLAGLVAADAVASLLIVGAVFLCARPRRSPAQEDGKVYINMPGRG

[2] = target: T2, FcERIγ (UniProt P30273 19-86)
T2 sequence (looked up): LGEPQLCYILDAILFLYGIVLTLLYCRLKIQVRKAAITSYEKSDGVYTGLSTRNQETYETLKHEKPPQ

[3] = target: DAP12 (UniProt O43914 22-113)
[4] = target: T3, ζ (UniProt P20963 22-164)
T3 construct: also called CD3ζ

Measured: binding result

DAP12, sequence (O43914 22-113 limits assumed): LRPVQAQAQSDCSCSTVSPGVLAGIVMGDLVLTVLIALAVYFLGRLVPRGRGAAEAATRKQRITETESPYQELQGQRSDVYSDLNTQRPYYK
T3 sequence (P20963 22-164 limits assumed): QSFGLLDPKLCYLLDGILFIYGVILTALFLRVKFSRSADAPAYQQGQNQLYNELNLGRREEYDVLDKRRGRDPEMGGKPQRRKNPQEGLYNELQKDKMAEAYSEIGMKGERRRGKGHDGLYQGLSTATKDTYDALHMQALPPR

B1: CD160-TM, Flag-tagged, expressed by transfected cells (receptor)
chain: GCINITSSASQEGTRLNLICTVWHKKEEAEGFVVFLCKDRSGDCSPETSLKQLRLKRDPGIDGVGEISSQLMFTISQVTPLHSGTYQCCARSQKSGIRLQGHFFSILFTETGNYTVTGLKQRQHLEFSHNEGTLSSGFLQEKVWVMLVTSLVALQGMSKRAVSTPSNEGAIIFLPPWLFSRRRRLERMSRGREKCYSSPGYPQESSNQFH
notes: Expressed in Jurkat cells from pEF6; Also used here for the co-expression in COS cells, where the construct is not described; also called CD160-TM transfectants; CD160-TM-transfected cells; not shown: Flag tag coded by the reverse oligonucleotide (C-terminal)
no binding: [1] | [2] | [3] | [4]
